Source: PMC5797146 (Scientific Reports, 2018)
Where a chain is given by its changes, count along the chain named. Numbers in names are those of the source.

B1: A26.8 VHH Q101K (VHH)
VHH: QVKLEESGGGLVQAGGSLRLSCAASERTFSRYPVAWFRQAPGAEREFVAVISSTGTSTYYADSVKGRFTISRDNAKVTVYLQMNNLKREDTAVYFCAVNSKRTRLQDPNEYDYWGQGTQVTVSS
notes: source: E. coli TG1, periplasmic extract, purified (IMAC, SEC)
B2: A26.8 VHH T103K (VHH)
VHH: B1 VHH with K101Q, T103K
notes: as for B1
B3: A26.8 VHH T54R (VHH)
VHH: B1 VHH with T54R, K101Q
notes: as for B1
B4: A26.8 VHH T58K (VHH)
VHH: B1 VHH with T58K, K101Q
notes: as for B1
B5: A26.8 VHH T56I (VHH)
VHH: B1 VHH with T56I, K101Q
notes: as for B1
B6: A26.8 VHH T103M (VHH)
VHH: B1 VHH with K101Q, T103M
notes: as for B1
B7: A26.8 VHH N109R (VHH)
VHH: B1 VHH with K101Q, N109R
notes: as for B1
B8: A26.8 VHH T103W (VHH)
VHH: B1 VHH with K101Q, T103W
notes: as for B1
B9: A26.8 VHH D107R (VHH)
VHH: B1 VHH with K101Q, D107R
notes: as for B1
B10: A26.8 VHH D107N (VHH)
VHH: B1 VHH with K101Q, D107N
notes: as for B1
B11: A26.8 VHH T103R (VHH)
VHH: B1 VHH with K101Q, T103R
notes: as for B1
B12: A26.8 VHH E110Q (VHH)
VHH: B1 VHH with K101Q, E110Q
notes: as for B1
B13: A26.8 VHH T54W (VHH)
VHH: B1 VHH with T54W, K101Q
notes: as for B1
B14: A26.8 VHH T54Y (VHH)
VHH: B1 VHH with T54Y, K101Q
notes: as for B1
B15: A26.8 VHH D107Y (VHH)
VHH: B1 VHH with K101Q, D107Y
notes: as for B1
B16: A26.8 VHH R104W (VHH)
VHH: B1 VHH with K101Q, R104W
notes: as for B1
B17: A26.8 VHH S53R (VHH)
VHH: B1 VHH with S53R, K101Q
notes: as for B1
B18: A26.8 VHH Q106L (VHH)
VHH: B1 VHH with K101Q, Q106L
notes: as for B1
B19: A26.8 VHH Q106W (VHH)
VHH: B1 VHH with K101Q, Q106W
notes: as for B1
B20: A26.8 VHH Q106Y (VHH)
VHH: B1 VHH with K101Q, Q106Y
notes: as for B1
B21: A26.8 VHH Q106F (VHH)
VHH: B1 VHH with K101Q, Q106F
notes: as for B1
B22: A26.8 VHH T56R, Q101K, T103R (VHH)
VHH: B1 VHH with T56R, T103R
notes: also called lead triple mutant; source: E. coli TG1, periplasmic extract, purified (IMAC, SEC)
B23: A26.8 VHH T56R, T103R (VHH)
VHH: B1 VHH with T56R, K101Q, T103R
notes: also called lead double mutant; source: E. coli TG1, periplasmic extract, purified (IMAC, SEC)
B24: A26.8 VHH T56R, Q101K, T103M (VHH)
VHH: B1 VHH with T56R, T103M
notes: as for B1
B25: A26.8 VHH T56R, Q101K, T103K (VHH)
VHH: B1 VHH with T56R, T103K
notes: as for B1
B26: A26.8 VHH T56R (VHH)
VHH: B1 VHH with T56R, K101Q
notes: as for B1
B27: A26.8 VHH T56R, T103K (VHH)
VHH: B1 VHH with T56R, K101Q, T103K
notes: as for B1
B28: A26.8 VHH T56R, Q101K (VHH)
VHH: B1 VHH with T56R
notes: as for B1
B29: A26.8 VHH Q101K, T103R (VHH)
VHH: B1 VHH with T103R
notes: as for B1
B30: A26.8 VHH T56R, T103M (VHH)
VHH: B1 VHH with T56R, K101Q, T103M
notes: as for B1
B31: A26.8 VHH Q101K, T103M (VHH)
VHH: B1 VHH with T103M
notes: as for B1
B32: A26.8 VHH Q101K, T103K (VHH)
VHH: B1 VHH with T103K
notes: as for B1

Target: T1, Clostridium difficile toxin A (Clostridioides difficile …, UniProt P16154)
T1 construct: also called TcdA
Experiment: SPR
Details: both partners purified

Binder | Kd [nM] | koff [s⁻¹] | kon [M⁻¹ s⁻¹]
B1 | 7.6 | 0.02 | 2.7e+06
B2 | 8.3 | 0.02 | 2.5e+06
B3 | 13.2 | 0.044 | 3.6e+06
B4 | 13.5 | 0.033 | 2.5e+06
B5 | 13.6 | 0.026 | 1.9e+06
B6 | 13.7 | 0.024 | 1.8e+06
B7 | 13.9 | 0.027 | 2e+06
B8 | 16.3 | 0.036 | 2.4e+06
B9 | 19 | 0.026 | 1.4e+06
B10 | 21.3 | 0.04 | 1.9e+06
B11 | 5.3 | 0.014 | 2.7e+06
B12 | 33.6 | 0.07 | 2.1e+06
B13 | 35 | 0.056 | 1.6e+06
B14 | 38.9 | 0.069 | 1.8e+06
B15 | 44 | 0.071 | 1.6e+06
B16 | 165 | 0.055 | 300000

Binder | Kd [nM] | koff [s⁻¹] | kon [M⁻¹ s⁻¹]
B17 | 224 | – | –
B18 | 612 | – | –
B19 | 1480 | – | –
B20 | 2320 | – | –
B21 | 5130 | – | –
B22 | 2 | 0.024 | 1.23e+07
B23 | 2.3 | 0.019 | 8.3e+06
B24 | 2.9 | 0.03 | 1.04e+07
B25 | 3.2 | 0.047 | 1.47e+07
B26 | 6.2 | 0.027 | 4.8e+06
B27 | 3.4 | 0.029 | 8.6e+06
B28 | 4.1 | 0.05 | 1.24e+07
B29 | 4.2 | 0.023 | 5.5e+06
B30 | 4.8 | 0.03 | 6.4e+06
B31 | 8 | 0.027 | 3.3e+06
B32 | 8.2 | 0.04 | 5e+06
